Blank lines part the entries; values can stand above or below the binder they belong to. Non-standard residues stand in square brackets, D forms with d. No end group written: not given here.
Key:
[1] = molecular target: human serum albumin (HSA) (Homo sapiens, UniProt P02768); test: TRANSIL XL HSA bead binding with liquid scintillation counting
[2] = molecular target: alpha-1-acid glycoprotein (AGP) (Homo sapiens, UniProt P02763); test: TRANSIL XL AGP bead binding with liquid scintillation counting
Sequence of alpha-1-acid glycoprotein (AGP) (P02763 19-201): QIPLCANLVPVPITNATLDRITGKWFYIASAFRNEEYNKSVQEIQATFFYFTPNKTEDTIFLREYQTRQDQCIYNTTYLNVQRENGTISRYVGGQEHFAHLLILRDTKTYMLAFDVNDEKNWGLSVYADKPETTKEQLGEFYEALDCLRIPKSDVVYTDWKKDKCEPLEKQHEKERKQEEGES

Kd [1]: 599000 nM
Kd [2]: 280 nM
B1: cANK6r (peptide)
chain: cyclo([dR][dK][dR][dI][dR][dL][dV][dT][dK][dK][dK][dR][dR])
modifications: also: 3H-labelled tracer

Kd [2]: 290 nM
B2: ANK6 (peptide)
chain: [dR][dK][dR][dI][dR][dL][dV][dT][dK][dK][dK][dR]-NH2
modifications: also: 3H-labelled tracer

Kd [1]: 138000 nM
Kd [2]: 60 nM
B3: tANK6 (peptide)
chain: [dR][dK][dR][dI][dR][dL][dV][dT][dK][dK][dK][dR][dR][dK][dR][dI][dR][dL][dV][dT][dK][dK][dK][dR]-NH2
modifications: also: 3H-labelled tracer
